Experimental data: article PMC7138851, “Quantitative assessment of the determinant structural differences between redox-active and inactive glutaredoxins” (Nature Communications, 2020)
Several values for one entry are separate records, joined by “and”; a condition that tells them apart may be missing. Equal values may be shown once.

What was measured:
[1] = target: T1, HsGrx5 (Homo sapiens, UniProt Q86SX6, C122S); experiment: UV/vis absorbance of purified protein; assay type: binding; conditions: as purified from E. coli; cluster type not determined here
T1 construct: gene GLRX5; E. coli XL1-Blue, pQE30; N-terminal MRGS(H)6 tag; C122S in all constructs
T1 sequence (Q86SX6 32-157 C122S): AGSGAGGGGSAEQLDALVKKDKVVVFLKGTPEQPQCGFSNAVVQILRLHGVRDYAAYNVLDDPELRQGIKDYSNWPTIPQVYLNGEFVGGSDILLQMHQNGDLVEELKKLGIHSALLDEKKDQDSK

[2] = target: T2, ScGrx7 (Saccharomyces cerevisiae, UniProt P38068); set-up: Disulfide oxidoreductase assay, steady-state kinetics, coupled NADPH consumption at 340 nm, pH 8.0, 25 °C; conditions: apparent Km at highest fixed GSH concentration; substrate; read-out: Km app(HEDS)
T2 construct: gene GRX7; E. coli XL1-Blue, pQE30; N-terminal MRGS(H)6 tag
T2 sequence (P38068 33-203): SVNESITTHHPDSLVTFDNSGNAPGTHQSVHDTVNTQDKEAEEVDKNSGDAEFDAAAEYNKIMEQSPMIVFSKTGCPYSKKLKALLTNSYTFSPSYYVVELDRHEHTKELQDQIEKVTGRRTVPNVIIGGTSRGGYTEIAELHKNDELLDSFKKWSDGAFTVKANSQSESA
Protocol: Steady-state kinetics of wild-type and mutant ScGrx7 and HsGrx5^C122S in the GSSCys and [compound left out] assays were determined spectrophotometrically by monitoring the consumption of NADPH at 340 nm and 25 °C using a thermostated Jasco V-650 UV/vis spectrophotometer[11],[19],[25]. Fresh stock solutions of NADPH, GSH, GR, and GSSCys or [compound left out] were prepared in assay buffer containing 0.1 M Tris/HCl, 1 mM EDTA, pH 8.0 before each experiment. Both assays were performed with 0.1 mM NADPH and 1 U/ml ScGR. […] NADPH, GSH, and GR were mixed in assay buffer before Grx was added and a baseline was recorded for 30 s. […] The absorbance of a reference cuvette containing all components but no Grx was measured in parallel and subtracted from the obtained Grx activity. […] NADPH, GSH, and [compound left out] were preincubated in assay buffer for 2 min before GR was added and a baseline was recorded for 30 s. […] Kinetic data were analyzed in Excel and SigmaPlot 13 by nonlinear and linear regression according to Michaelis–Menten, Lineweaver–Burk, Eadie–Hofstee, and Hanes theory[11],[19],[25].

[3] = target: Cys108 (UniProt position 108, FSKTGCPYSKK); experiment: chemical modification; conditions: 23 °C, 100 mM KCl in a constant-ionic-strength three-buffer system (value not stated), 50 mM potassium acetate, 50 mM MES, 100 mM Tris, Freshly reduced (NaBH4) free enzyme, no glutathione bound
[4] = target: Cys108 (UniProt position 108, FSATGCPYSKK); experiment: chemical modification; conditions: 23 °C (alkylation step), 25 °C (HEDS activity read-out), 100 mM KCl in a constant-ionic-strength three-buffer system, the ionic strength value is not stated, 50 mM potassium acetate, 50 mM MES, 100 mM Tris, Free enzyme, freshly reduced with a 20-fold molar excess of NaBH4, 6 µM protein
[5] = target: Cys108 (UniProt position 108, FSETGCPYSKK); experiment: chemical modification; conditions: 23 °C, 100 mM KCl in a constant-ionic-strength three-buffer system (value not stated), 50 mM potassium acetate, 50 mM MES, 100 mM Tris, Freshly reduced (NaBH4) free enzyme, no glutathione bound
[6] = substrate: N[C@@H](CCC(=O)N[C@@H](CS)C(=O)NCC(=O)O)C(=O)O; experiment: purified protein, by the assay type; set-up: GSSCys oxidoreductase assay, GR-coupled NADPH consumption at 340 nm, apparent Km from Hanes plots; conditions: pH 8.0; 25.0 °C
Protocol: (§1) Steady-state kinetics of wild-type and mutant ScGrx7 and HsGrx5^C122S in the GSSCys and [compound left out] assays were determined spectrophotometrically by monitoring the consumption of NADPH at 340 nm and 25 °C using a thermostated Jasco V-650 UV/vis spectrophotometer[11],[19],[25]. Fresh stock solutions of NADPH, GSH, GR, and GSSCys or [compound left out] were prepared in assay buffer containing 0.1 M Tris/HCl, 1 mM EDTA, pH 8.0 before each experiment. Both assays were performed with 0.1 mM NADPH and 1 U/ml ScGR. The following final protein concentrations were used for Y110F/H/A (5–150 nM), D144A/K (10 nM), E147A/K (10 nM), R153A/E (25–50 nM), ScGrx7^WP (20 nM), ScGrx7^loop (up to 1.4 µM), ScGrx7^WP+loop (up 2.6 µM), HsGrx5^C122S (up to 15 µM), HsGrx5^RR (up to 12 µM), HsGrx5^loop (up to 1.6 µM), and HsGrx5^RR+loop (up to 4.0 µM). For the GSSCys assays, GSH was varied between 50 µM and 1.5 mM at fixed GSSCys concentrations (25, 50, 100, and 150 µM). NADPH, GSH, and GR were mixed in assay buffer before Grx was added and a baseline was recorded for 30 s. All GSSCys assays were started by the addition of GSSCys. The absorbance of a reference cuvette containing all components but no Grx was measured in parallel and subtracted from the obtained Grx activity. For the [compound left out] assays, GSH was varied between 100 µM and 2.0 mM at fixed concentrations of [compound left out] (0.18, 0.37, 0.55, and 0.74 mM). NADPH, GSH, and [compound left out] were preincubated in assay buffer for 2 min before GR was added and a baseline was recorded for 30 s. All [compound left out] assays were started by the addition of enzyme. Kinetic data were analyzed in Excel and SigmaPlot 13 by nonlinear and linear regression according to Michaelis–Menten, Lineweaver–Burk, Eadie–Hofstee, and Hanes theory[11],[19],[25]. 29 Supplementary Figure 15 Supplementary Figure 15 | GSSCys assay steady-state kinetics of HsGrx5loop and HsGrx5RR+loop . […] The activities of HsGrx5 and HsGrx5RR were similar to the NADPH consumption of negative controls without enzyme and could not be analyzed.

[7] = substrate: N[C@@H](CCC(=O)N[C@@H](CSSC[C@H](N)C(=O)O)C(=O)NCC(=O)O)C(=O)O; experiment: purified protein, by the assay type; set-up: GSSCys oxidoreductase assay, GR-coupled NADPH consumption at 340 nm, apparent Km from Hanes plots; conditions: pH 8.0; 25.0 °C
Protocol: as §1

Q: `[S]1[Fe][S][Fe]1` [iron–sulfur cluster] was tested. Which “UV/vis absorbance of purified protein” value [1] did it give?
A: The value was “Freshly purified recombinant wild-type HsGrx5 contained an iron–sulfur cluster”.

Q: Which Km [2] does the source give for `OCCSSCCO` [HEDS] here?
A: Its Km is 820 ± 190 µM.

Q: For “Glutaredoxin 7 (ScGrx7), wild type (Saccharomyces cerevisiae)”, which pKa [3] is on record?
A: The pKa was 4.3 ± 0.1 and 4.48.

Q: “Glutaredoxin 7 (ScGrx7) K105A (Saccharomyces cerevisiae; K105A)” was tested. Which pKa [4] did it give?
A: Its pKa is 4.4 ± 0.1.

Q: With “Glutaredoxin 7 (ScGrx7) K105E (Saccharomyces cerevisiae; K105E)” as the molecule, how does the pKa [5] read?
A: Its pKa is 5.0 ± 0.1.

B1: HsGrx5 (Homo sapiens; C122S/DEL60-64/P65T/Q66G) (protein)
chain: AGSGAGGGGSAEQLDALVKKDKVVVFLKTGCGFSNAVVQILRLHGVRDYAAYNVLDDPELRQGIKDYSNWPTIPQVYLNGEFVGGSDILLQMHQNGDLVEELKKLGIHSALLDEKKDQDSK
notes: E. coli XL1-Blue, pQE30; N-terminal MRGS(H)6 tag; C122S in all constructs
Q: Which kcat [6] does the source give for B1 here?
A: The kcat was 0.18 s⁻¹ and 0.27 s⁻¹.

Q: What about the kcat/Km [6] of the same molecule?
A: Its kcat/Km is 3900 M⁻¹ s⁻¹ and 4800 M⁻¹ s⁻¹.

Q: What about the kcat/Km [7] of the same molecule?
A: The kcat/Km was 1500 M⁻¹ s⁻¹ and 1600 M⁻¹ s⁻¹.
